Assay results as given in the Human Domainome abundance scans (Beltran et al. 2025).

B1: Far upstream element-binding protein 1, residues 98 to 169; numbered along this chain, Q96AE4 (parent)
chain: RSVMTEEYKVPDGMVGFIIGRGGEQISRIQQESGCKIQIAPDSGGLPERSCMLTGTPESVQSAKRLLDQIVE

Variants of: B1
Test: abundance fitness (aPCA) (normalised: wild type 0, dead -1); higher = more abundant; growth selection in yeast, the domain comes from the species named
Conditions: Homo sapiens

Abundance fitness: each site, then its substitutions
S50: R -0.011 | D -0.023 | F -0.177 | V -0.017 | M -0.018 | T -0.015 | K -0.019 | L -0.002 | P -0.043 | G -0.054 | Y -0.117 | H -0.105 | Q -0.025 | C -0.015 | N 0.038 | I 0.07 | W -0.174 | A -0.048 | E -0.06
S33: Q -0.431 | T -0.034 | N -0.534 | P -0.865 | A -0.068 | H -0.308 | Y -0.435 | C -0.158 | D -0.868 | I -0.313 | M -0.414 | L -0.325 | F -0.219 | G -0.522 | W -0.59
G45: R -0.078 | Y -0.095 | V -0.111 | W -0.166 | P -0.078 | N -0.094 | L -0.115 | E -0.023 | D -0.002 | A -0.046 | H -0.163 | I -0.14 | K -0.086 | S -0.027 | Q -0.046 | C -0.034 | T -0.074 | M -0.093
E48: P -0.088 | I -0.057 | G -0.045 | H -0.114 | C -0.119 | S -0.057 | M -0.092 | K -0.084 | T -0.028 | D -0.059 | Q -0.085 | Y 0.02 | N -0.019 | F -0.015 | W 0.004 | A -0.041 | L 0.001 | V -0.035
P41: V -0.111 | L -0.155 | E 0.005 | Q -0.031 | F -0.198 | T -0.016 | A -0.044 | N -0.051 | M -0.064 | Y -0.16 | H -0.124 | I -0.176 | D 0.009 | S -0.023 | R -0.031 | C -0.025 | K -0.04
K36: D -0.02 | A -0.018 | C -0.031 | S -0.041 | G -0.058 | Y -0.149 | W -0.129 | E -0.025 | M -0.047 | I -0.078 | F -0.044 | R -0.034 | T -0.062 | N -0.059 | H -0.046 | L -0.026 | P -0.666 | V -0.022 | Q -0.04
A40: Q -0.045 | P -0.02 | R -0.064 | M -0.032 | D -0.039 | F -0.101 | C -0.023 | N -0.103 | T -0.024 | L -0.05 | K -0.058 | G -0.039 | V -0.089 | Y -0.088 | S -0.034
G44: C -0.019 | Q -0.023 | I -0.064 | W -0.125 | D -0.017 | S -0.003 | T 0.002 | N -0.024 | A -0.013 | E -0.004 | H -0.092 | P -0.061 | R -0.015 | Y -0.037 | M -0.012 | L -0.05 | F -0.107
Q38: A -0.017 | M -0.038 | W -0.049 | H -0.034 | R -0.032 | G -0.09 | C -0.005 | Y -0.138 | P -0.844 | T -0.027 | E 0.023 | S -0.007 | K -0.041 | L -0.036 | F -0.031 | D -0.042 | I 0.001
C35: A -0.036 | I -0.261 | L -0.554 | T -0.172 | D -0.81 | P -0.986 | R -0.935 | E -0.835 | V -0.087 | S -0.154 | Q -0.936 | K -0.945 | Y -1.09 | G -0.489 | M -0.847 | N -0.955 | F -1.1 | W -1.19 | H -0.835
Q31: S -0.025 | Y -0.09 | R -0.014 | M -0.061 | G -0.089 | H -0.06 | I -0.053 | F -0.089 | N -0.013 | T -0.024 | L -0.043 | W -0.153
G34: T -0.124 | D -0.094 | E -0.06 | Q -0.086 | I -0.316 | A -0.1 | P -0.837 | R -0.071 | C -0.095 | L -0.147 | S -0.15 | V -0.256 | H -0.051 | K -0.081 | F -0.222 | Y -0.269 | W -0.364 | M -0.117
P47: Q 0.019 | N -0.012 | S -0.014 | K -0.004 | R -0.054 | H -0.052 | D -0.007 | V -0.038 | E -0.025 | M -0.088 | L -0.02 | I -0.049 | F -0.084 | C -0.061 | G -0.019 | T -0.007 | A -0.012
S43: A -0.016 | L -0.098 | G -0.066 | W -0.142 | K -0.091 | Y -0.124 | I -0.024 | T -0.037 | C -0.131 | P -0.234 | M -0.087 | R -0.086 | V -0.068 | D -0.042 | N -0.043
I37: Y -0.963 | N -0.848 | W -0.933 | E -0.937 | A -0.313 | D -0.873 | T -0.48 | L -0.087 | S -0.788 | C -0.129 | P -0.679 | M -0.081 | H -0.775 | V -0.038 | F -0.25 | R -1.05 | K -0.911 | Q -0.911
L46: C -0.026 | W -0.132 | T -0.006 | N -0.023 | G -0.01 | Q -0.001 | F -0.004 | H -0.011 | M -0.031 | E 0.016 | Y -0.093 | I -0.092 | D -0.006 | K -0.006 | P -0.124 | R -0.006
I39: K -0.445 | R -0.369 | C -0.109 | F 0.038 | H -0.266 | E -0.36 | A -0.252 | L -0.081 | W -0.109 | N -0.415 | M -0.026 | V -0.032 | Q -0.35 | D -0.51 | Y -0.207 | T -0.227
E32: F -0.208 | C -0.096 | Q -0.059 | L -0.092 | V -0.05 | Y -0.235 | D -0.076 | A -0.071 | P -0.796 | N -0.12 | K -0.077 | M -0.067 | G -0.166
R49: E -0.188 | I -0.133 | G -0.088 | H -0.106 | F -0.248 | C -0.183 | K -0.079 | V -0.116 | S -0.086 | L -0.18 | Y -0.072 | A -0.088 | Q -0.083 | N -0.085 | W -0.318 | T -0.068 | D -0.172 | P -0.144
D42: F -0.094 | N -0.031 | H -0.04 | I -0.085 | P 0.004 | E 0.014 | Q -0.054 | W -0.089 | L -0.095 | S -0.024 | C -0.015 | A -0.041 | T -0.053 | R -0.027 | M -0.08 | K -0.026 | Y -0.113
